# Laboratory results taken from the RNAGym collection of RNA variant scans (doi:10.1073/pnas.2313332121).
# B1: TPR t1 (parent)
# chain: GACCAAUCUGCCCUCAGAGCUCGAGAACAUCUUCGGAUGCAGAGGAGGCAGGCUUCGGUGGCGCGAUAGCGCCAACGUCCUCAACCUCCAAUGCAUCCCACCACAUGAUGAUGCCUGAAGAGCCUUGGUUUUUUG
# Variants of: B1
# Assay: polymerase ribozyme fitness, log enrichment relative to wild type (log ratio); higher = more active; in vitro selection for triplet polymerase activity
# How it was run: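 Input and output libraries were sequenced on Illumina after a single in vitro selection round, run in triplicate on PCR-built, transcribed mutant libraries of each subunit of a heterodimeric triplet polymerase ribozyme. Selection annealed libraries to a biotinylated primer, the partner subunit and triplets, incubated them frozen at −7 °C, then gel-excised extended constructs for streptavidin-bead capture and RT-PCR. Genotypes with ≥10 input reads and ≥1 read per output were kept. Fitness is the logarithm, taken in base 2, of genotype enrichment divided by wild-type enrichment, using inverse-variance-weighted replicate averages.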
row,Variant,polymerase ribozyme fitness (log ratio)
1,GACCAAUCUGCCCUCAGAGCUCGAGAACAUCUUCGGAUGCAGAGGAGGCAGGCUUCGGUGGCGCGAUGGCGCCAACGUCCUCAACCGCCAAUGCAUCCCACCACAUGAUGAUGCCUGUAGAGCCUUGGUUUAUUG [A68G U87G A118U U132A],-2
2,GACCAAUCUGCCCUCAGAGCUCGAGAACAUCUUCGGAUGCAGAGGAGGCAGGCUUCGGUGGCGCGAUUGCGCCAACGUCCUCAACCUCCAAUUCAUCCCAACACAUGAUGAUUCCUAAAGAGCCUUGGUUUUUUG [A68U G93U C101A G113U G117A],-6.33
3,GACCAAUCUGCCCUCAGAGCUCGAGAACAUCUUCGGAUGCAGAGGAGGCAGGCUUCGGUGGCGCGAUUACGCCAACGUCCUCAACCUCCAAUGCAUCCCACCACAUGAUGAUGCCUGAAGAGCCUUGGUUUUUUG [A68U G69A],-6.04
4,GACCAAUCUGCCCUCAGAGCUCGAGAACAUCUUCGGAUGCAGAGGAGGCAGGCUUCGGUGGCGCGAUAACGCCAACGUCCUCAACCUCCACUGCAUCCCACCACAUGAUGAUGCCUGAAGAGCCAUGGUUUUUUG [G69A A91C U125A],-6.56
5,GACCAAUCUGCCCUCAGAGCUCGAGAACAUCUUCGGAUGCAGAGGAGGCAGGCUUCGGUGGCGCGAUAACGUCAACGUCCUCAACCUCCAAUGCAUCCCACCACAUGAUGAUGCCUGAAGAGCCUUGGUUUUUUG [G69A C72U],-1.06
6,GACCAAUCUGCCCUCAGAGCUCGAGAACAUCUUCGGAUGCAGAGGAGGCAGGCUUCGGUGGCGCGAUGGCGCCAACGUCCACAACCUCCAAUGCAUCCCACCACAUGAUGAUGCCUGAAGAGCCUUGGUUUUUUG [A68G U81A],-4.45
7,GACCAAUCUGCCCUCAGAGCUCGAGAACAUCUUCGGAUGCAGAGGAGGCAGGCUUCGGUGGCGCGAUGGCGCCAACGUCCUCAACCUCCAAUGCAUCCCACCACAUGAUUAUGCCUGAAGAGCCUUGGUUUUUUG [A68G G110U],-3.66
8,GACCAAUCUGCCCUCAGAGCUCGAGAACAUCUUCGGAUGCAGAGGAGGCAGGCUUCGGUGGCGCGAUGGCGCCAACGUCCUCAACCUCCAAUGCAUCCCACCACAUGAUCAUGCCUGAAGAGCCUUGGUUUUUUG [A68G G110C],-5.66
9,GACCAAUCUGCCCUCAGAGCUCGAGAACAUCUUCGGAUGCAGAGGAGGCAGGCUUCGGUGGCGCGAUGGCGCCAACGUCCUCAACCUCCAAUGCAGCCCACCACAUGAUGAUGCCUGAAGAGCCUUGGUUUUUUG [A68G U96G],-3.68
10,GACCAAUCUGCCCUCAGAGCUCGAGAACAUCUUCGGAUGCAGAGGAGGCAGGCUUCGGUGGCGCGAUGGCGCCAACGUCCUCAACCUCCAAUGCAUCCCACCACAUGAUGAUCCCUGAAGAGCCUUGGUUUUUUG [A68G G113C],-4.28
11,GACCAAUCUGCCCUCAGAGCUCGAGAACAUCUUCGGAUGCAGAGGAGGCAGGCUUCGGUGGCGCGAUGGCGCCAACGUCCUCAACCUCCAAUGCAUCCCACAACAUGAUGAUGCCUGAAGAGCCUUGGUUUUUUG [A68G C102A],-6.51
12,GACCAAUCUGCCCUCAGAGCUCGAGAACAUCUUCGGAUGCAGAGGAGGCAGGCUUCGGUGGCGCGAUAACGCCAACGUCCUCAACCUCCAAUGCAUCCCACCACAUGAUGGUGCCUGAAGAGCCUUGGUUUUUUG [G69A A111G],-2.61
13,GACCAAUCUGCCCUCAGAGCUCGAGAACAUCUUCGGAUGCAGAGGAGGCAGGCUUCGGUGGCGCGAUAACGCCAACGUCCUUAACCUCCAAUGCAUCCCACCACAUGAUGAUGCCUGAAGAGCCUUGGUUUUUUG [G69A C82U],-2.48
14,GACCAAUCUGCCCUCAGAGCUCGAGAACAUCUUCGGAUGCAGAGGAGGCAGGCUUCGGUGGCGCGAUGGCGCCAACGUCCUCAAACUCCAAUGCAUCCCACCACAUGAUGAUGCCUGAAGAGCCUUGGUUUUUUG [A68G C85A],-4.94
15,GACCAAUCUGCCCUCAGAGCUCGAGAACAUCUUCGGAUGCAGAGGAGGCAGGCUUCGGUGGCGCGAUGGCGCCAACGUCCUCAACCUCCAAUGCAUCCCACCACAUGAUGAUGCCUGAAGAGCCUUGGUUAUUUG [A68G U131A],-3.5
16,GACCAAUCUGCCCUCAGAGCUCGAGAACAUCUUCGGAUGCAGAGGAGGCAGGCUUCGGUGGCGCGAUGGCGCCAACGUCCUCAACCUCCAAUGGAUCCCACCACAUGAUGAUGCCUGAAGAACCUUGGUUUUUUG [A68G C94G G122A],-5.12
17,GACCAAUCUGCCCUCAGAGCUCGAGAACAUCUUCGGAUGCAGAGGAGGCAGGCUUCGGUGGCGCGAUAACGCCAACGUCUUCAACCUCCAAUGCAUCCCACCACAUGAUGAUGCCUGAAGAGCCUUGGUUUUUUG [G69A C80U],-2.58
18,GACCAAUCUGCCCUCAGAGCUCGAGAACAUCUUCGGAUGCAGAGGAGGCAGGCUUCGGUGGCGCGAUGGCGCGAACGUCCUCAACCUCCAAUGCAUCCCACCACAUGAUGAUGCCUGAAGAGCCUUGGCUUUUUG [A68G C73G U129C],-5.86
19,GACCAAUCUGCCCUCAGAGCUCGAGAACAUCUUCGGAUGCAGAGGAGGCAGGCUUCGGUGGCGCGAUAACGCCAACGUCCUCAACCUCCAAUGCAUCCCACCACAUGAUGUUGCCUGAAGAGCCUUGGUAUUUUG [G69A A111U U130A],-6.09
20,GACCAAUCUGCCCUCAGAGCUCGAGAACAUCUUCGGAUGCAGAGGAGGCAGGCUUCGGUGGCGCGAUUGCGCCAACGUCCUCAACCUCCAAUGCAUCCCACAACAUGAUGAUGCCUGAAGAGCCUUGGUUUUUUG [A68U C102A],-6.73
21,GACCAAUCUGCCCUCAGAGCUCGAGAACAUCUUCGGAUGCAGAGGAGGCAGGCUUCGGUGGCGCGAUAACGCCAACGUCCUCAACUUCCAAUGCAUCCCACCACAUGAUGAUGCCUGAAGAGCCUUGGUUUUUUG [G69A C86U],-3.19

row,Variant,polymerase ribozyme fitness (log ratio)
1,GACCAAUCUGCCCUCAGAGCUCGAGAACAUCUUCGGAUGCAGAGGAGGCAGGCUUCGGUGGCGCGAUAACGCCAACGUACUCAACCUCCAAUGCAUCCCACCACAUGAUGGUGCCUGAAGAGCCUUGGUUUUUUG [G69A C79A A111G],-5.28
2,GACCAAUCUGCCCUCAGAGCUCGAGAACAUCUUCGGAUGCAGAGGAGGCAGGCUUCGGUGGCGCGAUUGCGCCAACGUCCUCAACCUCCAAUGCAUCCCACCACAUGAUGAUGCCUGAAGAGCGUUGGUUUUUUG [A68U C124G],-4.93
3,GACCAAUCUGCCCUCAGAGCUCGAGAACAUCUUCGGAUGCAGAGGAGGCAGGCUUCGGUGGCGCGAUUGCGCCAACGUCCUCAACCUCCAAUGCAUCCCACCACAUGAUGAUGCCUGAAGAGCAUUGGUUUUUUG [A68U C124A],-4.62
4,GACCAAUCUGCCCUCAGAGCUCGAGAACAUCUUCGGAUGCAGAGGAGGCAGGCUUCGGUGGCGCGAUUGCGCCAACGUCCUCAACCUCCAAUGCAUCCCACCACAUGAUGAUGCCUGAAGAGUCUUGGUUUUUUG [A68U C123U],-5.66
5,GACCAAUCUGCCCUCAGAGCUCGAGAACAUCUUCGGAUGCAGAGGAGGCAGGCUUCGGUGGCGCGAUGGCGCCAACGUCCUCAACCUCCAAUGAAUCCCACCACAUGAUGAUGCCUGAAGAGCCUUGGUUUUUUG [A68G C94A],-5.05
6,GACCAAUCUGCCCUCAGAGCUCGAGAACAUCUUCGGAUGCAGAGGAGGCAGGCUUCGGUGGCGCGAUGGCACCAACGUCCUCAACCUCCAAUGCAUCCCACCACAUGAUGAUGCCUGAAGAGCCUUGGUUUUUUG [A68G G71A],-4.15
7,GACCAAUCUGCCCUCAGAGCUCGAGAACAUCUUCGGAUGCAGAGGAGGCAGGCUUCGGUGGCGCGAUGGCGCUAACGUCCUCAACCUCCAAUGCAUCCCACCACAUGAUGAUGCCUGAAGAGCUUUGGUUUUUUU [A68G C73U C124U G135U],-3.48
8,GACCAAUCUGCCCUCAGAGCUCGAGAACAUCUUCGGAUGCAGAGGAGGCAGGCUUCGGUGGCGCGAUGGCGCCAACGUCCUCAACCGCCAAUGCAUCCCACCACAUGAUGAUGCCUGAAGAGCCUUGGUUUUUUG [A68G U87G],-3.29
9,GACCAAUCUGCCCUCAGAGCUCGAGAACAUCUUCGGAUGCAGAGGAGGCAGGCUUCGGUGGCGCGAUUGCGUCAACGUCCUAAACCUCCAAUCCAUCCCACCACAUGAUGAUGCUUGAAGAACCUUGGUUUUUUG [A68U C72U C82A G93C C115U G122A],-7.25
10,GACCAAUCUGCCCUCAGAGCUCGAGAACAUCUUCGGAUGCAGAGGAGGCAGGCUUCGGUGGCGCGAUGGCGCCAACGAUCUCAACCUCCAAUGCAUCCCACCACAGGAUGAUGCCUGAAGAGCCUUGGUUUUUUG [A68G U78A C79U U106G],-6.12
11,GACCAAUCUGCCCUCAGAGCUCGAGAACAUCUUCGGAUGCAGAGGAGGCAGGCUUCGGUGGCGCGAUUGCGCCAACGUCCUUAACCUCCAGUGCAUCCCAGCACAUGAUGAUGCCUGAAGAGUCUUGUUUUUUUG [A68U C82U A91G C101G C123U G128U],-5.8
12,GACCAAUCUGCCCUCAGAGCUCGAGAACAUCUUCGGAUGCAGAGGAGGCAGGCUUCGGUGGCGCGAUAACGCCAAAGUCCUCAACCUCCAAUGCAUCCCACCACAUGAUGAUGCCUGAAGAGUCUUGGUUUUUUG [G69A C76A C123U],-5
13,GACCAAUCUGCCCUCAGAGCUCGAGAACAUCUUCGGAUGCAGAGGAGGCAGGCUUCGGUGGCGCGAUAACGUCAACGUCCUCAACCUCCAAUGCAUCCCACCACAUGAUGCUGCCUGAAGAGCCUUGGUUAUUUG [G69A C72U A111C U131A],-3.01
14,GACCAAUCUGCCCUCAGAGCUCGAGAACAUCUUCGGAUGCAGAGGAGGCAGGCUUCGGUGGCGCGAUUGCGCCAACGCCCUCAACCUCCAAUGCAUCCCACCACAUGAUGAUGCCUGAAGAGCCUUGGUUUUUUG [A68U U78C],-6.34
15,GACCAAUCUGCCCUCAGAGCUCGAGAACAUCUUCGGAUGCAGAGGAGGCAGGCUUCGGUGGCGCGAUGGCGCCAACGUCCUCAACCUCCAAUGCAUCCCACCACAUGAUGAUGCCUGAAGAGCUUUGGUUUUUUG [A68G C124U],-1.26
16,GACCAAUCUGCCCUCAGAGCUCGAGAACAUCUUCGGAUGCAGAGGAGGCAGGCUUCGGUGGCGCGAUAACGCCAACGUCCUCAACUUCCAAUGCAUCCCACCACAUGAUGCUGCCUGAAGAGCCUUGGUUUUUUG [G69A C86U A111C],-3.32
17,GACCAAUCUGCCCUCAGAGCUCGAGAACAUCUUCGGAUGCAGAGGAGGCAGGCUUCGGUGGCGCGAUAACGCCAACGUUUUCAACCUCCAAUGCAUCCCACCACAUGAUGAUGCCUGAAGAGCCUUGGUUUUUUG [G69A C79U C80U],-6.55
18,GACCAAUCUGCCCUCAGAGCUCGAGAACAUCUUCGGAUGCAGAGGAGGCAGGCUUCGGUGGCGCGAUUCCGCCAACGUCCUCAACCUCCAAUGCAUCCCACCACAUGAUGAUGCCUGAAGCGCCUUGGUUUUUUG [A68U G69C A121C],-3.61
19,GACCAAUCUGCCCUCAGAGCUCGAGAACAUCUUCGGAUGCAGAGGAGGCAGGCUUCGGUGGCGCGAUAACGCCAACGUCCUCUACCUCCAAUGCAUCCCACCACAUGAUGAUGCCUGAAGAGCCUUGGUUUUUUG [G69A A83U],-3.05
20,GACCAAUCUGCCCUCAGAGCUCGAGAACAUCUUCGGAUGCAGAGGAGGCAGGCUUCGGUGGCGCGAUGGCGCCAACGUCCUCAACCCCCAAUGCAUCCCACCACAUGAUGCUGCCUGAAGAGCCUUGGUUUUUUU [A68G U87C A111C G135U],-6.03
21,GACCAAUCUGCCCUCAGAGCUCGAGAACAUCUUCGGAUGCAGAGGAGGCAGGCUUCGGUGGCGCGAUUGCGCCAACGUACUCAACCUCCAAUGCAUCCCACCAAAUGAUGUUGCCUGAAGAGCCUUGGUUUUUUG [A68U C79A C104A A111U],-8.01
